Results: paper PMC3610906

Target: microtubules in LLCPK cells (pig (endogenous in LLCPK)) (UniProt P02550)
Experiment: FRAP; living LLCPK cells expressing GFP-tau, 37°C; fluorescence recovery integrated along line scans on single photobleached microtubules; half time from a first-order rate constant (t1/2 = ln2/k)

UniProt P02550, sequence (P02550 whole entry, chain 1 of 2): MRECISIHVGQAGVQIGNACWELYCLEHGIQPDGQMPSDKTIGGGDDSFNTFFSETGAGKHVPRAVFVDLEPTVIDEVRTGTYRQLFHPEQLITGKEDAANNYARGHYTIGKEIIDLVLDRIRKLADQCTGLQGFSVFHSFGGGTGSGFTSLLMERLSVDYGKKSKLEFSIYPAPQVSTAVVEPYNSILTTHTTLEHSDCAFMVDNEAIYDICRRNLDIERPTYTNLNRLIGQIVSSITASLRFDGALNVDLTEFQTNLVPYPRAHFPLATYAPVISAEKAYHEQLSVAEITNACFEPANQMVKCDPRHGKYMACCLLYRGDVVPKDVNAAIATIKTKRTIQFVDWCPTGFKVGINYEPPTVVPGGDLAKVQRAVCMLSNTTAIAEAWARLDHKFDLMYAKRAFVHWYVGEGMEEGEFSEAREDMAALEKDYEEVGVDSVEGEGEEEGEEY
UniProt P02550, sequence (Q767L7 whole entry, chain 2 of 2, further chain): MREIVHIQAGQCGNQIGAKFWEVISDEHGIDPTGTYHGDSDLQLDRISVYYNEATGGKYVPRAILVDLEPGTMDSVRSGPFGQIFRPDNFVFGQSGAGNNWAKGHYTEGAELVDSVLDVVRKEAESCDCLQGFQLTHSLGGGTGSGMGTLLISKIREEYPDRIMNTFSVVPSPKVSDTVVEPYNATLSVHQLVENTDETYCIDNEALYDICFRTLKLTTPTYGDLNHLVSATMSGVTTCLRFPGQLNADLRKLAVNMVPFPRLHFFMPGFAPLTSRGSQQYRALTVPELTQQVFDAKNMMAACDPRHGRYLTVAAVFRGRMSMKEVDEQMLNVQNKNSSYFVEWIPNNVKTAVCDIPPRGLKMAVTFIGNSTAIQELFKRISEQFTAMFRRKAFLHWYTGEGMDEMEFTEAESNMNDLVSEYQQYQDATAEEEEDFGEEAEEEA

- half time of fluorescence recovery on microtubules: 6.8 s
Substance: GFP-tau (isoform with three microtubule-binding repeats) (natural protein)
